From patent US20190010233A1 (JIANGSU HYAMAB PHARMACEUTICAL, published 2019)
Read-outs that look alike come from different tables or passages of the source.

B1: fully human anti-PD-L1 antibody 127D2F3 (antibody, human IgG4 S228P, kappa, V domains shown)
VH: EVQLVESGGGLVQPGGSLRLSCVASGFTFSSYWMSWVRQAPGKGLEWVANIKQDGSEKYYVDSVKGRLTISRDNAKNSLYLQMKSLRAEDTAVYYCARDPIYSSYFDYWGQGILVTVSS
VL: DIQMTQSPSSLSASVGDRVTITCRASQSISNYLNWYQQKPGKAPKLLIYAASSLQSGVPSRFSGSGSGTDFTLTISSLQPEDFAAYYCQQSYGIPFTFGPGTKVDIKR
notes: also called 127D2F3 (fully human)
B2: fully human anti-PD-L1 antibody 192D9E7 (antibody, human IgG4 S228P, kappa, V domains shown)
VH: EVQLVESGGGLVQPGGSLRLSCAASGFTFSSYWMSWVRQAPGKGLEWVADIKQDGSEKYYVDSVKGRFTISRDNAKNSLYLQMNSLRAEDTAVYYCTRDKPHWGGVMDAWGQGTSVTVSS
VL: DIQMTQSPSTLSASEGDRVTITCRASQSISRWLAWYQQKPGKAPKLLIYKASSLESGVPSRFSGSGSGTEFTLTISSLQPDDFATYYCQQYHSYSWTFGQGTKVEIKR
notes: also called 192D9E7 (fully human); 192D9F7
B3: fully human anti-PD-L1 antibody 73G11B3 (antibody, human IgG4 S228P, kappa, V domains shown)
VH: EVQLVESGGGLVQPGGSLRLSCVVSGFTFSSYWMSWVRQTPGKGLEWVANIKQDGSEKYYVDSVKGRLTISRDNAKNSLYLQMNSLRAEDTAVYYCVRDRAVPGTGALDIWGQGTMVTVSS
VL: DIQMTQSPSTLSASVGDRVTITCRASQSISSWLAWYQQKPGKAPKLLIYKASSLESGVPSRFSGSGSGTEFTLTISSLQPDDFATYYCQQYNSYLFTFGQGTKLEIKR
notes: also called 73G11B3 (fully human)

Experiments:
[1] = target: T1, human PD-L1^ECD-hFc protein (human, UniProt Q9NZQ7 19-239, biotinylated in the PD-1 binding ELISA (Table 3) and in the Octet assay (Table 12)); experiment: ELISA, 3 nM mAb
T1 construct: The plain and the biotinylated protein are kept as one molecule; also called PD-L1-hFc; Immunogen A; not shown: human IgG Fc fragment (hFc)

[2] = target: T2, cyno PD-L1^ECD-hFc protein (cyno, UniProt G7PSE7 19-239); experiment: ELISA, 0.0003 nM mAb
T2 construct: also called Cyno Monkey PD-L1^ECD-hFc

[3] = target: T1, human PD-L1^ECD-hFc protein; experiment: ELISA, 0.003 nM mAb
[4] = target: T2, cyno PD-L1^ECD-hFc protein; experiment: ELISA, 0.00003 nM mAb
[5] = target: T2, cyno PD-L1^ECD-hFc protein; experiment: ELISA, 0.003 nM mAb
[6] = target: T1, human PD-L1^ECD-hFc protein; experiment: ELISA, 0.03 nM mAb
[7] = target: T2, cyno PD-L1^ECD-hFc protein; experiment: ELISA, 0.03 nM mAb
[8] = target: T1, human PD-L1^ECD-hFc protein; experiment: ELISA receptor-ligand blocking assay: PD-L1 protein coated, fully human antibody titrated, blocked ligand PD-1, inhibition rate (%)
[9] = target: T2, cyno PD-L1^ECD-hFc protein; experiment: ELISA, 30 nM mAb
[10] = target: T1, human PD-L1^ECD-hFc protein; experiment: ELISA, 0.3 nM mAb
[11] = target: T1, human PD-L1^ECD-hFc protein; experiment: ELISA receptor-ligand blocking assay: PD-L1 protein coated, fully human antibody titrated, blocked ligand B7.1, inhibition rate (%)
[12] = target: T1, human PD-L1^ECD-hFc protein; experiment: ELISA, 30 nM mAb
[13] = target: T1, human PD-L1^ECD-hFc protein; experiment: ELISA, 0.00003 nM mAb
[14] = target: T2, cyno PD-L1^ECD-hFc protein; experiment: ELISA, 0.3 nM mAb
[15] = target: T2, cyno PD-L1^ECD-hFc protein; experiment: ELISA, 3 nM mAb
[16] = target: T3, full length human PD-L1 on cells (human, UniProt Q9NZQ7 19-290); experiment: cell-based or functional assay
[17] = target: T1, human PD-L1^ECD-hFc protein; experiment: ELISA, 0.0003 nM mAb
[18] = target: T3, full length human PD-L1 on cells; experiment: cell-based or functional assay; remark: listed apart in the source
[19] = target: T3, full length human PD-L1 on cells; experiment: cell-based or functional assay; remark: listed apart in the source
[20] = target: T3, full length human PD-L1 on cells; experiment: cell-based or functional assay; remark: listed apart in the source
[21] = target: T3, full length human PD-L1 on cells; experiment: cell-based or functional assay; remark: listed apart in the source

T1 sequence (Q9NZQ7 19-239): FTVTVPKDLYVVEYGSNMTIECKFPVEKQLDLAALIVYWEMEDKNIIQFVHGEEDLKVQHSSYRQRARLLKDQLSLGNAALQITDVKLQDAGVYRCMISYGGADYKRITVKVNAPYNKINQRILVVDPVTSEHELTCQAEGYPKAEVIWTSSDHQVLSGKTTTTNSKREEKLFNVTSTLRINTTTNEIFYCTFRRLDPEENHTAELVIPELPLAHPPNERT
T2 sequence (G7PSE7 entry or part of it limits assumed): as the sequence (Q9NZQ7 19-239) above, with A33T, A34S, S62N, R68Q, Q82R, F173L, T185A, T192I, H215L counted along it
T3 sequence (Q9NZQ7 19-290 limits assumed): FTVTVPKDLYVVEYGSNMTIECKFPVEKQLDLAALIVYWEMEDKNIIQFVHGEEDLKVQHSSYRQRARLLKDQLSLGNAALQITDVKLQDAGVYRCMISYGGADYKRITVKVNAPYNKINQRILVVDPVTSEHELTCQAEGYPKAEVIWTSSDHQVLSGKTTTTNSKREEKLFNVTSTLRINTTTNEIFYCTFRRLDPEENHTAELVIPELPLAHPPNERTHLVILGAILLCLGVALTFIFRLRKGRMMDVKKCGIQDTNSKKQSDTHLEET

| Binder | OD450 nm [1] | OD450 nm [2] | OD450 nm [3] | OD450 nm [4] | OD450 nm [5] | OD450 nm [6] | OD450 nm [7] | IC50 (read off the curve) [8] | OD450 nm [9] | OD450 nm [10] | IC50 (read off the curve) [11] | OD450 nm [12] | OD450 nm [13] | OD450 nm [14] | OD450 nm [15] | IFN-γ (pg/mL), T cell stimulation assay, 0.001 µg/mL mAb [16] | IFN-γ (pg/mL), T cell stimulation assay, 0.01 µg/mL mAb [16] | IFN-γ (pg/mL), T cell stimulation assay, 0.1 µg/mL mAb [16] | IFN-γ (pg/mL), T cell stimulation assay, 1 µg/mL mAb [16] | OD450 nm [17] | further results |
| --- | --- | --- | --- | --- | --- | --- | --- | --- | --- | --- | --- | --- | --- | --- | --- | --- | --- | --- | --- | --- | --- |
| B1 | 2.68 | 0.28 | 0.329 | 0.297 | 0.332 | 0.852 | 0.889 | ~2 nM | 2.59 | 2.48 | ~1 nM | 2.59 | 0.281 | 2.49 | 2.6 | 5090 pg/mL | 11200 pg/mL | 9340 pg/mL | 14100 pg/mL | 0.264 | – |
| B2 | 2.67 | 0.348 | 0.322 | 0.324 | 0.376 | 0.786 | 0.953 | ~1 nM | 2.54 | 2.52 | ~0.8 nM | 2.59 | 0.287 | 2.55 | 2.66 | 6150 pg/mL | 13100 pg/mL | 11500 pg/mL | 15200 pg/mL | 0.285 | IFN-γ (pg/mL), MLR, 0.001 µg/mL mAb [18]: 592 pg/mL; IFN-γ (pg/mL), MLR, 0.01 µg/mL mAb [18]: 915 pg/mL; IFN-γ (pg/mL), MLR, 0.1 µg/mL mAb [18]: 1870 pg/mL; IFN-γ (pg/mL), MLR, 1 µg/mL mAb [18]: 2760 pg/mL; IFN-γ (pg/mL), MLR, 10 µg/mL mAb [18]: 2270 pg/mL; IL-2 (pg/mL), MLR, 0.001 µg/mL mAb [19]: 210 pg/mL; IL-2 (pg/mL), MLR, 0.01 µg/mL mAb [19]: 341 pg/mL; IL-2 (pg/mL), MLR, 0.1 µg/mL mAb [19]: 713 pg/mL; IL-2 (pg/mL), MLR, 1 µg/mL mAb [19]: 721 pg/mL; IL-2 (pg/mL), MLR, 10 µg/mL mAb [19]: 770 pg/mL; IFN-γ (pg/mL), MLR, 0.001 µg/mL mAb [20]: 9030 pg/mL; IFN-γ (pg/mL), MLR, 0.01 µg/mL mAb [20]: 11200 pg/mL; IFN-γ (pg/mL), MLR, 0.1 µg/mL mAb [20]: 19600 pg/mL; IFN-γ (pg/mL), MLR, 1 µg/mL mAb [20]: 22900 pg/mL; IFN-γ (pg/mL), MLR, 10 µg/mL mAb [20]: 15500 pg/mL |
| B3 | 2.72 | 0.283 | 0.403 | 0.308 | 0.358 | 0.855 | 1 | ~1 nM | 2.6 | 2.48 | ~0.9 nM | 2.67 | 0.256 | 2.52 | 2.65 | 6780 pg/mL | 10900 pg/mL | 13100 pg/mL | 13500 pg/mL | 0.254 | IL-2 (pg/mL), MLR, 0.001 µg/mL mAb [19]: 215 pg/mL; IL-2 (pg/mL), MLR, 0.01 µg/mL mAb [19]: 274 pg/mL; IL-2 (pg/mL), MLR, 0.1 µg/mL mAb [19]: 654 pg/mL; IL-2 (pg/mL), MLR, 1 µg/mL mAb [19]: 729 pg/mL; IL-2 (pg/mL), MLR, 10 µg/mL mAb [19]: 601 pg/mL; IFN-γ (pg/mL), T cell stimulation assay, 0.001 µg/mL mAb [21]: 5120 pg/mL; IFN-γ (pg/mL), T cell stimulation assay, 0.01 µg/mL mAb [21]: 6340 pg/mL; IFN-γ (pg/mL), T cell stimulation assay, 0.1 µg/mL mAb [21]: 9360 pg/mL; IFN-γ (pg/mL), T cell stimulation assay, 1 µg/mL mAb [21]: 8790 pg/mL; IFN-γ (pg/mL), T cell stimulation assay, 10 µg/mL mAb [21]: 13100 pg/mL; IFN-γ (pg/mL), MLR, 0.001 µg/mL mAb [20]: 9790 pg/mL; IFN-γ (pg/mL), MLR, 0.01 µg/mL mAb [20]: 10700 pg/mL; IFN-γ (pg/mL), MLR, 0.1 µg/mL mAb [20]: 21700 pg/mL; IFN-γ (pg/mL), MLR, 1 µg/mL mAb [20]: 21700 pg/mL; IFN-γ (pg/mL), MLR, 10 µg/mL mAb [20]: 16900 pg/mL |
